Source: publication PMC3744483, “Swiprosin-1 Is a Novel Actin Bundling Protein That Regulates Cell Spreading and Migration” (PLoS ONE, 2013)

T1: GST-tagged wild-type swiprosin-1 (human, UniProt Q96C19 1-240)
T1 construct: swiprosin-1, human, full length, in pGEX-4T-1; source: E. coli BL21, purified (glutathione beads, eluted with glutathione)
T1 sequence (looked up): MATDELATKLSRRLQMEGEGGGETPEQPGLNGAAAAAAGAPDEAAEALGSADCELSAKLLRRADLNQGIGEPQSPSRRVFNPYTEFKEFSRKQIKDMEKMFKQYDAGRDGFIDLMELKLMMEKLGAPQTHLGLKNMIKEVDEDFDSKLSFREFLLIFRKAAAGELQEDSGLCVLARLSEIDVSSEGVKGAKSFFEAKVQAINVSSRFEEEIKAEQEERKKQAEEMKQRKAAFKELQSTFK

B1: His-tagged wild-type swiprosin-1 (natural protein, human, UniProt Q96C19 1-240, looked up)
chain: MATDELATKLSRRLQMEGEGGGETPEQPGLNGAAAAAAGAPDEAAEALGSADCELSAKLLRRADLNQGIGEPQSPSRRVFNPYTEFKEFSRKQIKDMEKMFKQYDAGRDGFIDLMELKLMMEKLGAPQTHLGLKNMIKEVDEDFDSKLSFREFLLIFRKAAAGELQEDSGLCVLARLSEIDVSSEGVKGAKSFFEAKVQAINVSSRFEEEIKAEQEERKKQAEEMKQRKAAFKELQSTFK
notes: swiprosin-1, human, full-length clone amplified from pOTB7 (RZPD), cloned into a modified pET-28a; The modified pET-28a carries a TEV protease cleavage site (ENLYFQ/G) with the N-terminal tandem His tags; no cleavage is described and the protein is detected with anti-His; also called Swip-1; source: E. coli BL21 (DE3), purified (Ni-NTA agarose); not shown: His tag (tandem), N-terminal, kept

How the values were obtained:
[1] = molecular target: B1; assay: pull-down; GST pull-down: equal amounts of purified GST_Swip-1 (wild type or mutants) and His_Swip-1 with glutathione-Sepharose 4B beads, 2 h at 4°C, 50 mM Hepes pH 7.4, 150 mM NaCl, 1.5 mM MgCl2, 1% Triton X-100; blot with anti-His; also with or without 2 mM EGTA; conditions: both partners purified
[2] = molecular target: T1, GST-tagged wild-type swiprosin-1; assay: as above; conditions: both partners purified

Row | binding result [1] | binding result [2] | Binder
1 | binds | – | AINVSSRFEEEIKAEQEERKKQAEEMKQRKAAFKELQSTFK (domain or fragment, human, UniProt Q96C19 200-240, looked up, swiprosin-1, human, residues 200–240 (C-terminal coiled-coil region), in pGEX-4T-1; also called 200–240 (i); source: E. coli BL21, purified (glutathione beads, eluted with glutathione)) [GST-tagged swiprosin-1 200–240]
2 | binds | – | GST-tagged swiprosin-1 163–240 (domain or fragment, human, UniProt Q96C19 163-240, looked up, swiprosin-1, human, residues 163–240 (C-terminal region with the coiled-coil domain), in pGEX-4T-1; also called 163–240 (h); source: E. coli BL21, purified (glutathione beads, eluted with glutathione)) GELQEDSGLCVLARLSEIDVSSEGVKGAKSFFEAKVQAINVSSRFEEEIKAEQEERKKQAEEMKQRKAAFKELQSTFK
3 | – | binds | B1
